According to article PMC3701943:

Biological target: W590S murine ABCA1-GFP fusion (murine) (UniProt P41233)
Assay: flow cytometry on cells

UniProt P41233, sequence (P41233 whole entry W590S, the tested form may be a part): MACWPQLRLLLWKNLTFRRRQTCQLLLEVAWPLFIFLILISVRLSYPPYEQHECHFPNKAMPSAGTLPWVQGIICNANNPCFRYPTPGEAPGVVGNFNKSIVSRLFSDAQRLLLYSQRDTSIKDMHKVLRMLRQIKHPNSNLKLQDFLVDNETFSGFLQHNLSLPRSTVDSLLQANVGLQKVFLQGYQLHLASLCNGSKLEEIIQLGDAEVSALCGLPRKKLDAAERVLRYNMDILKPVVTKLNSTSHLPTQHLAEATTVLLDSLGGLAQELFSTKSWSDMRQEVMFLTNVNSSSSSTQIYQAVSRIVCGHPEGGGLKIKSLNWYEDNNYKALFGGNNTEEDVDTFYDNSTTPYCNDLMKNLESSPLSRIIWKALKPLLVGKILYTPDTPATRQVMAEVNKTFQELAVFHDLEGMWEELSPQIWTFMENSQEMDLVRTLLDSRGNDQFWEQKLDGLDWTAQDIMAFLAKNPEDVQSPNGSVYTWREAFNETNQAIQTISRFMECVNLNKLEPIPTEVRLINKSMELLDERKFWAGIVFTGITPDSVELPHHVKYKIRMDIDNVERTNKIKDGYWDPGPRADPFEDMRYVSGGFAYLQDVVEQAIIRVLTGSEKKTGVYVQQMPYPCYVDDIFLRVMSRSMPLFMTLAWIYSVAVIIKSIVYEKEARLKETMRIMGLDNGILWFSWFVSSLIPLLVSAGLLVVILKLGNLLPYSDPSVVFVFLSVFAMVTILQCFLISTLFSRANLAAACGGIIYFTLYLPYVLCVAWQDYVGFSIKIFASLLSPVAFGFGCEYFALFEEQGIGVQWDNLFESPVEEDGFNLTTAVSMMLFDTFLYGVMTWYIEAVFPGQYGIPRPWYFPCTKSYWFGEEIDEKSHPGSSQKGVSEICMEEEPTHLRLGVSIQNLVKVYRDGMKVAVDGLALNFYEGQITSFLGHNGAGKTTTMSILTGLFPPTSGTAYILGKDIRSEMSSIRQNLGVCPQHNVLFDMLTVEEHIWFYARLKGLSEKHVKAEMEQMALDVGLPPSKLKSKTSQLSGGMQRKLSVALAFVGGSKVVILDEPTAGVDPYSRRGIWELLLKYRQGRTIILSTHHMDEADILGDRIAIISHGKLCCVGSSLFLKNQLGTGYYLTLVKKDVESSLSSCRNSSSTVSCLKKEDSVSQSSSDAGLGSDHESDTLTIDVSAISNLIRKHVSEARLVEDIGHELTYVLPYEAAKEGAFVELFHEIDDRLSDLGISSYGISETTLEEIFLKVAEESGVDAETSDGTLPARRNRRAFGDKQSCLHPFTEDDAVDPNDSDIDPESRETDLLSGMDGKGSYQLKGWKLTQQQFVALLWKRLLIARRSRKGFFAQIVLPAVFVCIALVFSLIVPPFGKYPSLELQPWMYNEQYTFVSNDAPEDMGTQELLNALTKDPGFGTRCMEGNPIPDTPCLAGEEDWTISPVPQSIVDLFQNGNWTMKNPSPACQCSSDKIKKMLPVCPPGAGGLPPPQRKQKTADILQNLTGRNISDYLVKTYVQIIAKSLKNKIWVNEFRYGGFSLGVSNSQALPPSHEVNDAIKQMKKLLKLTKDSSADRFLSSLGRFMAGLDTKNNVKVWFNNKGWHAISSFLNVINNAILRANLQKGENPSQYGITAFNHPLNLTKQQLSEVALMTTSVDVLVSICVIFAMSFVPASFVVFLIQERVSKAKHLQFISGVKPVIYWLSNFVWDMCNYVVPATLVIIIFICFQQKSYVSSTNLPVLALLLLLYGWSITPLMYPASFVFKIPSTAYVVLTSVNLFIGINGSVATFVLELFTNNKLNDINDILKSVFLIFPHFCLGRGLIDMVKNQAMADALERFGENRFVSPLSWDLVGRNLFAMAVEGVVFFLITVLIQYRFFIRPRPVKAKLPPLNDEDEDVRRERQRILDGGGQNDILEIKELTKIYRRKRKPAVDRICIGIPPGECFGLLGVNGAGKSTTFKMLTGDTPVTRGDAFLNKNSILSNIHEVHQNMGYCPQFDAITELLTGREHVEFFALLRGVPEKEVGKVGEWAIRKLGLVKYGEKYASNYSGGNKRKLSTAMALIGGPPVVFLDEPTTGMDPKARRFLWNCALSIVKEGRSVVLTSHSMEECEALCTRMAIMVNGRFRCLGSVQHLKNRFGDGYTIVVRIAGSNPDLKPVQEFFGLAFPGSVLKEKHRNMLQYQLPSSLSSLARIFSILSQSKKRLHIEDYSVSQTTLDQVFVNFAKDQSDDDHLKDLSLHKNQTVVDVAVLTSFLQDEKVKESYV

- fold apoAI binding against control HEK cells: 6 fold
Substance: Alexa647-labeled apoAI (from UniProt P02647 25-267) (ligand)
